# Test results taken from paper PMC9109680.
# How the values were obtained:
# P37277 [1] = experiment: anion-exchange chromatography; DDM-solubilised thylakoid membranes (2 mg chl) on DEAE, MgSO4 gradient, 0.04% DDM; A700 peak areas of the PSI trimer and PSI monomer fractions; cells grown under standard conditions (GL); WT and ORR1 strains; settings: other: anion-exchange chromatography
# P37277 [2] = experiment: anion-exchange chromatography; DDM-solubilised thylakoid membranes (2 mg chl) on DEAE, MgSO4 gradient, 0.04% DDM; A700 peak areas of the PSI trimer and PSI monomer fractions; cells grown under increased photon flux (FL); WT and ORR1 strains; settings: other: anion-exchange chromatography
# [3] = target: photosystem I (PSI) reaction center (Synechocystis sp. PCC 6803 (endogenous in S. 6803 cells)) (UniProt P37277); experiment: native gel or EMSA; BN-PAGE, 4-16% Bis/Tris gels, of PSI fractions isolated by anion-exchange chromatography (or sucrose gradients), 0.04% DDM; bands compared to literature; WT and ORR1 cells, GL or FL
# [4] = target: photosystem I (PSI) reaction center (Synechocystis sp. PCC 6803 (endogenous in S. 6803 cells)) (UniProt P37277); experiment: anion-exchange chromatography; DDM-solubilised thylakoid membranes (2 mg chl) on DEAE, MgSO4 gradient, 0.04% DDM; A700 peak areas of the PSI trimer and PSI monomer fractions; cells grown under standard conditions (GL); WT and ORR1 strains
# [5] = target: photosystem I (PSI) reaction center (Synechocystis sp. PCC 6803 (endogenous in S. 6803 cells)) (UniProt P37277); experiment: anion-exchange chromatography; DDM-solubilised thylakoid membranes (2 mg chl) on DEAE, MgSO4 gradient, 0.04% DDM; A700 peak areas of the PSI trimer and PSI monomer fractions; cells grown under increased photon flux (FL); WT and ORR1 strains
# Chain of photosystem I (PSI) reaction center (P37277 whole entry, looked up): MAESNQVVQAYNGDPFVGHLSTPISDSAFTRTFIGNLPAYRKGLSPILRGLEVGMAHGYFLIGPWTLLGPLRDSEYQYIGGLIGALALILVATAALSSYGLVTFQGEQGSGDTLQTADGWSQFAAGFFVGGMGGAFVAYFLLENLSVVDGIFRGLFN
stoichiometry N [3],"Monomer : trimer (A700 peak areas), ORR1 strain [4]","Monomer : trimer (A700 peak areas), WT strain [4]","Trimer : monomer (A700 peak areas), ORR1 strain [4]","Trimer : monomer (A700 peak areas), WT strain [4]","Monomer : trimer (A700 peak areas), ORR1 strain [5]","Monomer : trimer (A700 peak areas), WT strain [5]","Trimer : monomer (A700 peak areas), ORR1 strain [5]","Trimer : monomer (A700 peak areas), WT strain [5]",Substance,"Monomer (% of total PSI), ORR1 strain (% of total PSI) (P37277 [1])","Monomer (% of total PSI), WT strain (% of total PSI) (P37277 [1])","Monomer (% of total PSI), ORR1 strain (% of total PSI) (P37277 [2])","Monomer (% of total PSI), WT strain (% of total PSI) (P37277 [2])"
–,–,–,–,–,–,–,–,–,photosystem I (PSI) reaction center,18,14,34,10
3,0.23,0.17,4.6,6.3,0.53,0.11,2,9.2,photosystem I (PSI) reaction center (from UniProt P37277 1-157) (complex),–,–,–,–
